Results reported in patent publication US20220332785A1.
Changes are numbered by the printed parent chain. Each block holds one binder with its values, some of them ahead of it.

Biological target: p53^R175H LP … (SEQ ID NO: 111) in the context of HLA-DRB1*13:01 (human)
Assay: cell-based or functional assay

B3: 4285-PBL-TCR2 (TCR)
TCR alpha: KTTQPPSMDCAEGRAANLPCNHSTISGNEYVYWYRQIHSQGPQYIIHGLKNNETNEMASLIITEDRKSSTLILPHATLRDTAVYYCIVRARANAGGTSYGKLTFGQGTILTVHPNIQNPEPAVYQLKDPRSQDSTLCLFTDFDSQINVPKTMESGTFITDKCVLDMKAMDSKSNGAIAWSNQTSFTCQDIFKETNATYPSSDVPCDATLTEKSFETDMNLNFQNLLVIVLRILLLKVAGFNLLMTLRLWSS
TCR beta: GITQSPKYLFRKEGQNVTLSCEQNLNHDAMYWYRQDPGQGLRLIYYSQIVNDFQKGDIAEGYSVSREKKESFPLTVTSAQKNPTAFYLCASLQFNEQFFGPGTRLTVLEDLRNVTPPKVSLFEPSKAEIANKQKATLVCLARGFFPDHVELSWWVNGKEVHSGVCTDPQAYKESNYSYCLSSRLRVSATFWHNPRNHFRCQVQFHGLSEEDKWPEGSPKPVTQNISAEAWGRADCGITSASYQQGVLSATILYEILLGKATLYAVLVSTLVVMAMVKRKNS
- functional avidity: interferon-gamma secretion (ELISA), lowest peptide concentration recognized: 10 ng/mL

B5: 4285-PBL-TCR5 (TCR)
TCR alpha: B3 TCR alpha with A90G, R91S, A92P, N93G
TCR beta: B3 TCR beta with L92S, Q93I, F94R, N95T, Q97A, P101Q, L108V
- functional avidity: interferon-gamma secretion (ELISA), lowest peptide concentration recognized: 10 ng/mL

B6: 4285-PBL-TCR1 (TCR)
TCR alpha: KTTQPNSMESNEEEPVHLPCNHSTISGTDYIHWYRQLPSQGPEYVIHGLTSNVNNRMASLAIAEDRKSSTLILHRATLRDAAVYYCILRDNNARLMFGDGTQLVVKPNIQNPEPAVYQLKDPRSQDSTLCLFTDFDSQINVPKTMESGTFITDKCVLDMKAMDSKSNGAIAWSNQTSFTCQDIFKETNATYPSSDVPCDATLTEKSFETDMNLNFQNLLVIVLRILLLKVAGFNLLMTLRLWSS
TCR beta: QVTQNPRYLITVTGKKLTVTCSQNMNHEYMSWYRQDPGLGLRQIYYSMNVEVTDKGDVPEGYKVSRKEKRNFPLILESPSPNQTSLYFCASGLVGFNQPQHFGDGTRLSILEDLRNVTPPKVSLFEPSKAEIANKQKATLVCLARGFFPDHVELSWWVNGKEVHSGVCTDPQAYKESNYSYCLSSRLRVSATFWHNPRNHFRCQVQFHGLSEEDKWPEGSPKPVTQNISAEAWGRADCGITSASYQQGVLSATILYEILLGKATLYAVLVSTLVVMAMVKRKNS
- functional avidity: interferon-gamma secretion (ELISA), lowest peptide concentration recognized: 10 ng/mL

B7: 4285-PBL-TCR3 (TCR)
TCR alpha: KDQVFQPSTVASSEGAVVEIFCNHSVSNAYNFFWYLHFPGCAPRLLVKGSKPSQQGRYNMTYERFSSSLLILQVREADAAVYYCAVEDRRRTALIFGKGTTLSVSSNIQNPEPAVYQLKDPRSQDSTLCLFTDFDSQINVPKTMESGTFITDKCVLDMKAMDSKSNGAIAWSNQTSFTCQDIFKETNATYPSSDVPCDATLTEKSFETDMNLNFQNLLVIVLRILLLKVAGFNLLMTLRLWSS
TCR beta: EPEVTQTPSHQVTQMGQEVILRCVPISNHLYFYWYRQILGQKVEFLVSFYNNEISEKSEIFDDQFSVERPDGSNFTLKIRSTKLEDSAMYFCASSEYQSQSNEQFFGPGTRLTVLEDLRNVTPPKVSLFEPSKAEIANKQKATLVCLARGFFPDHVELSWWVNGKEVHSGVCTDPQAYKESNYSYCLSSRLRVSATFWHNPRNHFRCQVQFHGLSEEDKWPEGSPKPVTQNISAEAWGRADCGITSASYQQGVLSATILYEILLGKATLYAVLVSTLVVMAMVKRKNS
- functional avidity: interferon-gamma secretion (ELISA), lowest peptide concentration recognized: 10 ng/mL

Further lines, results first:

- functional avidity: interferon-gamma secretion (ELISA), lowest peptide concentration recognized: 10 ng/mL
B1: 4285-PBL-TCR6 (TCR)
TCR alpha: QQVMQIPQYQHVQEGEDFTTYCNSSTTLSNIQWYKQRPGGHPVFLIQLVKSGEVKKQKRLTFQFGEAKKNSSLHITATQTTDVGTYFCAGPGGAGSYQLTFGKGTKLSVIPNIQNPEPAVYQLKDPRSQDSTLCLFTDFDSQINVPKTMESGTFITDKCVLDMKAMDSKSNGAIAWSNQTSFTCQDIFKETNATYPSSDVPCDATLTEKSFETDMNLNFQNLLVIVLRILLLKVAGFNLLMTLRLWSS
TCR beta: QVTQNPRYLITVTGKKLTVTCSQNMNHEYMSWYRQDPGLGLRQIYYSMNVEVTDKGDVPEGYKVSRKEKRNFPLILESPSPNQTSLYFCASSPFVVIGQINEQYFGPGTRLTVTEDLRNVTPPKVSLFEPSKAEIANKQKATLVCLARGFFPDHVELSWWVNGKEVHSGVCTDPQAYKESNYSYCLSSRLRVSATFWHNPRNHFRCQVQFHGLSEEDKWPEGSPKPVTQNISAEAWGRADCGITSASYQQGVLSATILYEILLGKATLYAVLVSTLVVMAMVKRKNS

- functional avidity: interferon-gamma secretion (ELISA), lowest peptide concentration recognized: 10 ng/mL
B2: 4285-PBL-TCR7 (TCR)
TCR alpha: ELKVEQNPLFLSMQEGKNYTIYCNYSTTSDRLYWYRQDPGKSLESLFVLLSNGAVKQEGRLMASLDTKARLSTLHITAAVHDLSATYFCAVAHMDSNYQLIWGAGTKLIIKPNIQNPEPAVYQLKDPRSQDSTLCLFTDFDSQINVPKTMESGTFITDKCVLDMKAMDSKSNGAIAWSNQTSFTCQDIFKETNATYPSSDVPCDATLTEKSFETDMNLNFQNLLVIVLRILLLKVAGFNLLMTLRLWSS
TCR beta: GVTQTPKFRVLKTGQSMTLLCAQDMNHEYMYWYRQDPGMGLRLIHYSVGEGTTAKGEVPDGYNVSRLKKQNFLLGLESAAPSQTSVYFCASSYAGLAAPREQFFGPGTRLTVLEDLRNVTPPKVSLFEPSKAEIANKQKATLVCLARGFFPDHVELSWWVNGKEVHSGVCTDPQAYKESNYSYCLSSRLRVSATFWHNPRNHFRCQVQFHGLSEEDKWPEGSPKPVTQNISAEAWGRADCGITSASYQQGVLSATILYEILLGKATLYAVLVSTLVVMAMVKRKNS

- functional avidity: interferon-gamma secretion (ELISA), lowest peptide concentration recognized: 10 ng/mL
B4: 4285-PBL-TCR9 (TCR)
TCR alpha: B3 TCR alpha
TCR beta: B3 TCR beta with S91T, L92R, Q93T, F94G, Q97A, P101Q, L108V
